We go through 40 sequences from the nanobody polyreactivity screen of Harvey et al. (2022).

This data set can be described thus: yeast display, Sf9 membrane polyspecificity reagent, FACS + sequencing; frameworks hold sequencing errors. The method in brief: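 Genes from sorted yeast were amplified by colony PCR, read by MiSeq 2 × 250 sequencing and filtered on CDR length. These cells carried a synthetic nanobody library in Saccharomyces cerevisiae BJ5465 and were sorted by FACS into low and high (top ~1%) gates on anti-HA and streptavidin fluorescence. Polyreactivity is labelled according to the gate of origin.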
As to “QVQLVESGGGLVQAGGSLRLSCAASGNIFRYYAMGWYRPAPGKERELVAAISSRGGSTYYADSVKGRFTISRDNAKNTVYLQMTSLKPADTAVYYCAAGGYDVYHDPYYYWGQGTQVTVSS”, the “polyreactivity (PSR sort gate)” value is listed as “low polyreactivity”. The same measure for “QVQLVESGGGLVQAGGSLRLSCAASGNIFSAYAMGWYRQAPGKEREFVAAISYSGGNTYYADSVKGRFTISRDNAKNTVYLLMNSLKPEVSAVYYCAARVLNKYYRYGYWGQGTQVTVSS”: “high polyreactivity”. Next, “QVQLVESGGGLVQAGGSLRLSCAASGNIFSDYAMGSYRQAPGKERELVAAISSGGNTNYADSVKGRFSISRDNAKKTVYLQMNSLKPEDTAVYYCAAFYNTTYTLLPAYSDVNYYYWGQGTQVTVSS”: “low polyreactivity”; “QVQLVESGGGLVQAGGSLRLSCAASGNIFSFYTMGWYRQAPGKERELVAAISWSGTSTYYADSVKGRFTISRDNAKNTVYLQMNSLKPEDTAVYYCAAERWWSGYEYWGQGTQVTVSS”: “high polyreactivity”. As for “QVQLVESGGGLVQAGGSLRLSCAASGNIFSYNAMGWYRQAPGKERELVAAITTSSGRTYYADSVKGRFTISRDNAKNTVYLQMNSLKPEDTAVYYCNRTVSRRSYRWDYDYWGQGTQVTVSS”, the “polyreactivity (PSR sort gate)” value is “high polyreactivity”. With “QVQLVESGGGLVQAGGSLRLSCAASGNIFTGNDMGWYRQAPGKERELVAAISKRGGSTFYADSVKGRFTISRDNAKNTVYLQMNSLKPEDTEGYYCNALRRGVRDPYGYWGQGTQVTVSS”, the “polyreactivity (PSR sort gate)” value is given as “high polyreactivity”. Take “QVQLVESGGGLVQAGGSLRLSCAASGNIFTSYAMGWYRQAPGKERELVAAISSGGRTSYADSVKGRFTISRDNAKNTVYLQMNSLKPEDTAVYYCAAYYRRWPREYYYWGQGTQVTVSS”: the “polyreactivity (PSR sort gate)” value is given as “high polyreactivity”.

For the sequence “QVQLVESGGGLVQAGGSLRLSCAASGNIFTTYAMGWYRQAPGKERELVAAISRTGGRTSYADSVKGRFTISRDNAKNTVYLEMNSLKPVDTAVYYCADTLWRQSNLEYWGQGTQVTVSS”, the “polyreactivity (PSR sort gate)” value is “high polyreactivity”. The same measure for “QVQLVESGGGLVQAGGSLRLSCAASGNIFVFYVMGWYRQAPGKERELVASISSTGNTYYADSVKGRFTISRDNAKNTVYLQMNSLKPEDTAVYYCAAEYYSIRYGPHSIEVYGMDYWGQGTQVTVSS”: “low polyreactivity”; for “QVQLVESGGGLVQAGGSLRLSCAASGNIFVRYVMGWYRQAPGKERELVAAITTSGGSTRYADSVKGRFTISRDNAKNTVYLQMNSLKPEDTAVYYCAARFRYRHLTYGYWGQGTQVTVSS”: “high polyreactivity”; for “QVQLVESGGGLVQAGGSLRLSCAASGNIFWRYAMGWYRQAPGKERELVAAISRRGGSTYYADSVKGRFTISRDNAKNTVYLQMNSLKPEDTAVYYCAASHSTWFSDPYGYWGQGTQVTVSS”: “low polyreactivity”. The same measure for “QVQLVESGGGLVQAGGSLRLSCAASGNIFYIYAMGWYRQAPGKERELVASISGRGGRTYYADSVKGRFTISRDNAKNTVYLQMNSLKPEDTAVYYCAADGYRTYSEMDYWGQGTQVTVSS”: “high polyreactivity”; for “QVQLVESGGGLVQAGGSLRLSCAASGNIFYKNNMGWYRQAPGKERELVAAISFSGGGTYYADSVKGRFTISRDNAKNTVYLQMNSLKPEDTAVYYCAAEYTYGWTYRPFDYWGQGTQVTVSS”: “high polyreactivity”. On to “QVQLVESGGGLVQAGGSLRLSCAASGNIFYNGMGWYRQAPGKERELVAAIRGSAGRTYADSVKGRFTISRDNAKNTVYLQMNILKPEDTAVYYCAAAKRYYSEMYWGQGTQVTVSS”, for which the “polyreactivity (PSR sort gate)” value was “high polyreactivity”. Next, “QVQLVESGGGLVQAGGSLRLSCAASGNIFYPNAMGGSRQAPGKERGLVAAISSSGGSTYYADSVKGRFTISRDNAKNTVYLQINSLKPEDTAVYYCAKDRSYAYYWSPYPTGYDYWGQGTQVTVSS”: “low polyreactivity”.

“QVQLVESGGGLVQAGGSLRLSCAASGNIFYTNAMGWYRQAPGKERELVATISRSVGSTYYADSVKGRFTISRDNAKNTVYLQMNSLKPEDTAVYYCAASRLLSALTAYSWGFNYWGQGSQVTVSS”: the “polyreactivity (PSR sort gate)” value is “high polyreactivity”. The same measure for “QVQLVESGGGLVQAGGSLRLSCAASGNIFYVYVMGWYRQAPGKERELVAAISRGGGSTYYADSVKGRFTISRDNAKNTVSLQMNSLKPEDTAVYYCAARRGYPSGYEYWGQGTQVTVSS”: “high polyreactivity”; for “QVQLVESGGGLVQAGGSLRLSCAASGNIFYWNVMGWYRQAPGKERELVAVISNGGRTYYADSVKGRFTISRDNAKNTVYLQMNSLKPEDTAVYYCAAEYDRLSKRYDYWGQGTQVTVSS”: “high polyreactivity”. “QVQLVESGGGLVQAGGSLRLSCAASGNIIDANAMGWYRQAPWKERELVAAITSSGGSTYYADSVKGRFTISRDNAKNTVYLQMNSLNPEDTAVYYCAKSHAIYYWWDESWGQGTQVTVSS”: the “polyreactivity (PSR sort gate)” value was “low polyreactivity”. The same measure for “QVQLVESGGGLVQAGGSLRLSCAASGNIIRKYAMGWYRPAPGKERELVAAITASGGRTFYADSVKGRFTISRDNAKNTVDLQMNSLKPEDTAVYYCATRDSPRTKNGYYYWGQGTQVTVSS”: “high polyreactivity”; for “QVQLVESGGGLVQAGGSLRLSCAASGNIIRSYMGWYRQAPGKERELVASISRRGGSTYYADSVKGRFTISRDNAKNTVYLHMNSLKPEDTAVYYCARRWSWVNGVFGYYWGQGTQVSVSS”: “high polyreactivity”. Next, “QVQLVESGGGLVQAGGSLRLSCAASGNILFYNSMGWYRQAPGKERELVAAISRSAGSTYYADSVKGRFTISRDNAKNTVYLQMNRLKAEDTAVYYCAAQYFRRSGYWGQGTQVTVSS”: “high polyreactivity”; “QVQLVESGGGLVQAGGSLRLSCAASGNILLFNAMGWYRQAPGKERELVATINQSGGRTYYADSVKGRFTISRDNAKNTVYLQMNSLKPEDTAVYYCNAPGSPVVQQPGYYWGQGTQVTVSS”: “low polyreactivity”. The same measure for “QVQLVESGGGLVQAGGSLRLSCAASGNILRGYAMGWYRQAPGKERELVAAINRGGGSTYYADSVKGRFTISRDYAKNTVYFQMNSLKPEDTAVYYCAARYPHRGYTFDYWGQGTQVTVSS”: “low polyreactivity”; for “QVQLVESGGGLVQAGGSLRLSCAASGNILWFNAMGWYRQAPGKERELVASISSSGGRTYYADSVKGRFTISRDNAKNTVYLQMNSLKPEDTAVYYCAAEYYYGWTYSGGLGFLGYNYWGQGTQVTVSS”: “low polyreactivity”; for “QVQLVESGGGLVQAGGSLRLSCAASGNIRNYGLGWYRQAPGKERELVAAITVSGSRTYYADSVKGRFTISRDNAKNTVYLQMNSLKPEDTAVSYCAARGYNTLTRYDYWGQGTQVTVTS”: “high polyreactivity”. “QVQLVESGGGLVQAGGSLRLSCAASGNNFYINAMGSYRQAPGKERELVAAIRGGGSTYYADSVKGRFTISRDNAKNTVYLQMNSLKPEDTAVYYCAARGRRLNPQYRAFGMDYWGQGTQVTVSS”: the “polyreactivity (PSR sort gate)” value is listed as “high polyreactivity”.

For “QVQLVESGGGLVQAGGSLRLSCAASGNSFSQYAMGWYRQAPGKERELVATISKSSGSTYYADSVKGRFTISRDNAKNTVYLQMNSLKPEDTAVYSCNAVSSDVYHHLGVLFFSTWYDYWGQGTQVTLSS”, the “polyreactivity (PSR sort gate)” value was “low polyreactivity”. Next, “QVQLVESGGGLVQAGGSLRLSCAASGNTFAAYAMGWYRQAPGKEWELVAAITTSGGITYYADSVKGRFTISRDNAKNTVYLQMNSLKPEDTAVYYCAVDGGRWGQGTQVTVSS”: “low polyreactivity”; “QVQLVESGGGLVQAGGSLRLSCAASGNTFADYAMGWYSQAPGKERELVADLTFSGGGTYYADSVKGRFTISRDNAKNTVYLQMNSLKPEDTPVYDCNADLDSYVGDEYDHWGQGTQVTVSS”: “low polyreactivity”; “QVQLVESGGGLVQAGGSLRLSCAASGNTFAPYAMGWYRQAPGKERELVATISYRGGSTNYADSVKGRFTISRDNAKNTVYLQMNSLKPEDTAVYYCNARYRWVVNRYSASGGSYNYWGQGTQVTVSS”: “high polyreactivity”. The same measure for “QVQLVESGGGLVQAGGSLRLSCAASGNTFAYNVMGWYRQAPGKERELVAAISRSGGSTYYADSVKGRFTISRDNAKNTVYLQMNSLKPEDTAVYYCAAVGRRVRPEGSYNRWGHDYWGQGTQVTVSS”: “high polyreactivity”; for “QVQLVESGGGLVQAGGSLRLSCAASGNTFDEYAMGWYRQAPGKEREFVAAIRNTYYADSVKGRFTISRDNAKNTVYLQMNSLKPEDTAVYYCAKPSQLHPYEYWGQGTQVTVSS”: “low polyreactivity”.

As for “QVQLVESGGGLVQAGGSLRLSCAASGNTFEYYTMGWYRKAPGKERELVASIDWSTTSTYYADSVKGRFTISRDNAKNTVYLQMNSLKPEDTAVYYCNTVYDYYHLGLYSGFRYHYWGQGTQGTVSS”, the “polyreactivity (PSR sort gate)” value was “low polyreactivity”. As for “QVQLVESGGGLVQAGGSLRLSCAASGNTFGHYTMGWYRQAPGKERELVAAISWDDSSTNYADSVKGRFTISRDNAKNTVYLQMNILKPEDTAVYYCAKETELRTQYPYVYDYWGQGSQVTVSS”, the “polyreactivity (PSR sort gate)” value is on record as “low polyreactivity”. Next, “QVQLVESGGGLVQAGGSLRLSCAASGNTFGPYDMGWYRQSPGKERELVAGITSGGSTYYADSVKGRFTISRDNAKNTVYLQMNSLKPEDTAVYYCAADDYLWVYWYDYWGQGTQVTVSS”: “high polyreactivity”.

Regarding “QVQLVESGGGLVQAGGSLRLSCAASGNTFGRYAMGGYRQAPGKERELVAAISWSGGSTYSADSVKGRFTISRDNAKNSLYLQMNSLKPEDTAVYYCAANSWRGFEYWGQGTQVTVSS”, the “polyreactivity (PSR sort gate)” value is “high polyreactivity”. For “QVQLVESGGGLVQAGGSLRLSCAASGNTFGYNAMGWYRQAPGKERELVASITWSGGSTYYADSVKGRFTISRDNAKNTVYLEMKSLKPEDTAVYYCNADVRYGRDHWGQGTQVTVSS”, the “polyreactivity (PSR sort gate)” value was “low polyreactivity”. Regarding “QVQLVESGGGLVQAGGSLRLSCAASGNTFIDYAMGWYRQAPGKERELVASITSGGGSTYYADSVKGRFTISRDNAKNTVYLQMNSLKPEDTAVYYCAAERYYSEAIFRSYDYWGQGTQVTVSS”, the “polyreactivity (PSR sort gate)” value is “low polyreactivity”. In the case of “QVQLVESGGGLVQAGGSLRLSCAASGNTFIPNAMGWYRQAPGKERELVAAIRASGGSTYYADSVKGRFTISRDNAKNTVYLLMNSLKPEDTAVYYCNDDIWYKTYDYWGQGTQVTVSS”, the “polyreactivity (PSR sort gate)” value is “low polyreactivity”.
